Measured values: ChEMBL document CHEMBL1649076, “Discovery of 5-chloro-N2-[(1S)-1-(5-fluoropyrimidin-2-yl)ethyl]-N4-(5-methyl-1H-pyrazol-3-yl)pyrimidine-2,4-diamine (AZD1480) as a novel inhibitor of the Jak/Stat pathway” (J Med Chem, 2011)

Substrate: Cc1cc(Nc2nc(N[C@H](C)c3ncc(F)cn3)ncc2Cl)n[nH]1
Description: Inhibition of JAK2 using Km ATP concentration

B1: Tyrosine-protein kinase JAK2 (Homo sapiens), O60674 (protein)
chain: MGMACLTMTEMEGTSTSSIYQNGDISGNANSMKQIDPVLQVYLYHSLGKSEADYLTFPSGEYVAEEICIAASKACGITPVYHNMFALMSETERIWYPPNHVFHIDESTRHNVLYRIRFYFPRWYCSGSNRAYRHGISRGAEAPLLDDFVMSYLFAQWRHDFVHGWIKVPVTHETQEECLGMAVLDMMRIAKENDQTPLAIYNSISYKTFLPKCIRAKIQDYHILTRKRIRYRFRRFIQQFSQCKATARNLKLKYLINLETLQSAFYTEKFEVKEPGSGPSGEEIFATIIITGNGGIQWSRGKHKESETLTEQDLQLYCDFPNIIDVSIKQANQEGSNESRVVTIHKQDGKNLEIELSSLREALSFVSLIDGYYRLTADAHHYLCKEVAPPAVLENIQSNCHGPISMDFAISKLKKAGNQTGLYVLRCSPKDFNKYFLTFAVERENVIEYKHCLITKNENEEYNLSGTKKNFSSLKDLLNCYQMETVRSDNIIFQFTKCCPPKPKDKSNLLVFRTNGVSDVPTSPTLQRPTHMNQMVFHKIRNEDLIFNESLGQGTFTKIFKGVRREVGDYGQLHETEVLLKVLDKAHRNYSESFFEAASMMSKLSHKHLVLNYGVCVCGDENILVQEFVKFGSLDTYLKKNKNCINILWKLEVAKQLAWAMHFLEENTLIHGNVCAKNILLIREEDRKTGNPPFIKLSDPGISITVLPKDILQERIPWVPPECIENPKNLNLATDKWSFGTTLWEICSGGDKPLSALDSQRKLQFYEDRHQLPAPKWAELANLINNCMDYEPDFRPSFRAIIRDLNSLFTPDYELLTENDMLPNMRIGALGFSGAFEDRDPTQFEERHLKFLQQLGKGNFGSVEMCRYDPLQDNTGEVVAVKKLQHSTEEHLRDFEREIEILKSLQHDNIVKYKGVCYSAGRRNLKLIMEYLPYGSLRDYLQKHKERIDHIKLLQYTSQICKGMEYLGTKRYIHRDLATRNILVENENRVKIGDFGLTKVLPQDKEYYKVKEPGESPIFWYAPESLTESKFSVASDVWSFGVVLYELFTYIEKSKSPPAEFMRMIGNDKQGQMIVFHLIELLKNNGRLPRPDGCPDEIYMIMTECWNNNVNQRPSFRDLALRVDQIRDNMAG
Q: With B1 as the protein, how does the Km read?
A: 0.031 µM
